Test results taken from the domain aggregation screens of Martell et al. (2025).

Assay: soluble fraction after stress (log2 fold change); higher = more stays soluble; pooled small domains, quantitative proteomics
Details: stress: pH 4
Procedure, shortened: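 With high-throughput quantitative proteomics, pooled custom libraries of small protein domains were measured after pH 4 stress. Each domain's soluble amount after the stress gives a fold change taken as aggregation propensity. Higher log2 values mean more of the domain stayed soluble.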

Sequence | soluble fraction (log2)
HMKVTQDIIFKRNGEEIKSKVLEITPDLIIYIDYSRADNIAREINISEVNMIIYKNGTSEIFSRPEE | -1.15
HMNETRVDQAADLLLALLEKEPKSAAEILDEFEQAGFSKSGLYRAKDALGVVSIRKEGRWVWSLPHSLD | -0.778
HMIRSNLAEQAYAQLKALIHDFQLLPGDRFSENEMGTRLGVSRTPVREALFRLRNEGFLEVESKAGWYVK | -1.73
HMSEEGTIPDVSGQDEASAQKALENAGFTNIKSEAVYSEEEQGTVIDTNPTAGTKVSKDTEITMQVSKGSE | 0.108
HMVLMPIDALRGSSSSSEMRIAAVKFSPSKGWYFSLQERSDEGSSYYEQKVASDGSVSERVKVR | -0.69
HMNRNEFMERLEYLLSDIPQEEKADAIAYYRDYLEEAGDDAGKAIQDFGSPERIAAMIRSELAG | -0.841
HMDDINVSNSKNIVPNVTGHTGSKAIPVLENLGLDVQYSGFGKVTNQSIPAGTRFKKGETIYLMLE | -0.0218
HMKQKAEVIFVSKTIMEALSKGVRLTPENLKSETELPIDDFYARLKELIDNGSVVESRENGESYLEAGN | -0.938
HMPVFSLTPRELEILEWMSTPNTYRQIAAQLSVSEETVRSHAKNILEKMRQPNRAQAVLAAVKMGLIKL | -0.772
HMEFLLAIQPFVLLTDHANLTFLREQTDSMMKRIQINISGFEIEFRYVPGLTNILPDKMSRV | -0.199
HMAANKIDEDRNTELLQVIQNKFPDADAATKKSVKEIMKEHDIPNFKNADDIPTAVLEQIVKVLNQ | -0.128
HMAEPLMTQIVEIEYADAEGLRENLEQFLTRLDEKTLLGSVLVDRHTNSLIIQAVRSDLERMLPLIETLDR | -1.49
HMEVSTRQVRAALRDIIEAEDKKRPLSDEAITARLREQGLPVARRTVAKYREQMGILAARLRK | 0.0717
HMSSLTPRETEVLSRMAQGDANTSIAERLVITEKAVQKHINAIFAKLGLAEEPTSARRVLAVLAFLR | -0.407
HMAVELPLETTLDIVRKYARNQEVDRRAERVEAVSAEALQTLAPRGTKLASEIVEQAKTQVLEELA | -0.0679
HMKGKWKPIILWQLSKAPQSLSGLRHSIAGISQKMLIQHLNELIHFGFVVRTTFEGYPLKVEYDLTDRGR | -0.251
HMKKYLIIDAANEKIIFKIIDNNKTYTNDYENSRKNFDRFAVLLFNFLNKNMISFDTIDKAL | -0.19
HMEMVSMPGLTGSTLEFATKTLTENELKYEVVYIVDASAESGLIIRTYPTEGEMVSKKTSTIYLYIKE | -0.481
HMSVIKERLTEFLTYKGIGQIKFAEAAGLSRGFVNVLGDGISSKSLNKISQAFPELNTLWLTTGEGEML | -0.061
HMLAGVDTLADRELEVFQMLGRGKSTKEIAQVLNLGESTVETYRARIKEKLQLRSAAELYLRAGQWVRDHG | -0.426
HMIKRETNDNPVDPASLSLGDRVKILTLNQNGEIISLPDEKGLLQVQVGIMKIGVNVSDIMLI | -0.413
HMSIESMVGRFGVVTKDVVANEMAGKVKVGREEFRATADIAVSSGTKVKVTHAEGITLTVVPE | 0.0258
HMSLEEIPLEERLGPGGLDPVAVYDSLPREMRDAFDSGSVSALREFVNALPAEDAARHMKAMVDSGLWVPT | -0.794
HMEIPMRDKLKTYIDYLFAGAPQTAATAETKAEILQNTLDKYDDLIAEGKTPEAAYSLAVSGIGDLGDF | -0.339
HMSSVEEILQTLGGRIRTQRLAQGISQQVLADRAGLSLGAVRQLEGSGQSGLDTLVRVLFVLGIVDEL | -1.57
HMFDFNNLSSLSDVELSVYRFVVNNPEKVAYMRVRDIAQKTHVANSSVMRFVHKIGFASFPEFKAYLKNIN | -0.0916

Sequence | soluble fraction (log2)
HMALLSNEDIMFNLEFNRDLAVASNDGVSRDEFLRNKYGISEEEYNMLRARYGDGLNAARIKEYVGQRD | -0.36
HMGDITIPDLQGMSFDQAREKLKALGLSIGKISYTSDTSKDDGVVISQGLQAGGKASKGATVDITINET | -0.177
HMSTASPEELRQTPERRRLIEYLREHGGHGRTSEIAAALGIDDSTASRLLRRLADNGLIVRTQYGEYTLLQ | -0.0496
HMIDVNLVQRGKTLHLRRRVPMRYSSVERREYVSISLKTDSEAEARRKAGAAWDQMIAAWEARLA | -0.12
HMKDRNISSSVLEILSKDPDHTYNYKQIAALLGVKDAFIRKRIVTLLAQLAKDGHLDEISRGKYQIK | -0.0199
HMNDIQIILQEAVARLPKKQQLVFNMKYFDHLKYQEISEILGTSVGGLKASYFQAVKKIENYIINKH | 0.0158
HMATYNEVLKRLIEERKRLGLSQQEMARLVHITQSNYSKVEKGLHRLSYEELKYLSKANVDIFYILT | 0.0845
HMTEKIVFNIDGQTGRIDKILADFMTGTSRSQIQAWVKDGNLMVNDKAVKSNYKVQDGDLLELTIPEPEQ | -0.378
HMQQIAVDLSEFKPRLMRDMSSMLAGLYTHDLDLSSLDFSKVANFTFMFRGAIITGTLKMPKI | 0.109
HMQNYNLTQQEKKVLQLLVSGKSYKMIAAELNVAFDTVKSHITNIYSKLHVHSGTEAVSVAIRDKI | 0.199
HMGDTHKVPGVKGVNVEQAMDMLSRLDLKAVVIDSVYVKDKKLGTVIEQNPVEGSVVKPGRPIYLVVNSRS | -0.0241
HMILEEIIGKNIARYREAAGLTQATLAEKIGISTAFVSRVERGQKKMKVETLYATAKVLNVSVDALLS | 0.0651
HMTAVVPNFKGKLISELSNFVADKNVRYTIIDSIYDPEEKSGIVIKQDPEEKTQVKHNRIIYLYVTST | -1.11
HMVVGYRYVTNVANAVNFRQKPSASSTIITTIPYGTRIGYVEDANSEYARVKYDNMYGYVAKFYLSNYSPP | 0.276
HMVVLNQEQIKFIDHYLQVSKVRYVDVRSELTDHIATAVELKMQDEALDFYEAFKAFIAVNKSQLLQRN | -0.975
HMFQNYTDAVVVASKTFFYNMPDESTRKSAYLIQGDRIMVEKSQRNFVYVTFTNEASGRTTTGWLKSDDLE | -0.00722
HMPVQSNRDALLDIGQTLQVQAWDAQGSARVSYRGSDWTAEFRGPGAAAPGLHRIIAVQGNRLIVEPA | -0.164
HMSGTYIVTVQANTLDIYKSMTSNDTIGKANKGDVFQILEDMGGGYAKVSYNDVEGYISIKDGDTSIDEM | -1.29
HMGPLTMGQRIVRLRTQAGLSQDALAEQLGVSRQSVSKWETDGSVPDLDRLVKLSKVFGVTLDELVKG | ≥ 0.43
HMESSYKGFILDIETRQFSPTLIQRRGIAINPSGIVETTTEFSFATQEKVLIEDLKLIIDELDLRADY | -2.31
HMTHEIKIKSHSLFASEGTKYQWYLNNIKINDATSQELEITSPGIYKLEMTNFDGDVIEKQIIVGLTNS | -1.52
HMDPHEEELLRQLIRGDIAGYEVLFHKYYPTFFAFIKGMTKETVVAEDITQNIFMKVWLNRERLDAA | -0.535
HMGSATAPDLKGLTYEQAQTKAEDAGYNIEKGEDVYDNDVEKGKVASQDPEAGAEAKEGSVITVNISK | 0.168
HMVEYFDDENLDAFIGRESDSYTEKEIEQFREILYTMNQKEVADWNRSLTIRGINIPNDLKDEMIMMI | -2.71
HMRRPRGVFNLVPGKRFGFITPDGGGEDVFAHLANVRAGHVAEDRNAVEYGIGRGPDGRDQAVDIVPMP | 0.00891
HMDRSKREKEQQELMLKVQQIFDDNQQRFGAEKIRTVLAQNGVRVSVKRVSAIMQELNLRSIR | 0.169

Sequence | soluble fraction (log2)
HMEKLIRIKRLIKQLNEYRDSYYNEARPVVSDAAYDKLFDELSELEKETGVVYANSPTQTVG | -0.457
HMKPSISKIYALWGVLQRSGKIKSQDKAALDAFVRKYTGVDHVKWLDESQARKIIEILKQMIA | 0.104
HMENTSPMTPEQSKALMAYLTKRHGDSREAYLSELSQFFGRPLSSSRELTKADVSEFLNAIN | -0.0703
HMLDSDARRRGLIEYLSLNGYATMRQLAGEFDVSINTIQRDITYLARYYPLETAYGRYGGGVYFEQNWQ | -1.04
HMRISLKAQVYEYLKQAIINGDLKVGEIYSEQYFADKLSISRTPVREAILQLQHENMVEVKANRGIIVK | -0.406
HMLSKGDRVSWDTPQGRTQGEVVEKKTKDFEHDGQKFTASDDDPAFIVKSEKSGAEAAHKGSALNK | -0.0554
HMFDKVSVNNLAEAIGRLDGIYQDVLRLYYVHELPSKEIGKILNINHLTVNTRLKRAREKLFKMLKEE | -0.812
HMDTAGSVAIVSKSVIENGFGEIKYKGTYFKAQSDVYIPKDQMVKVIGKGDEQGSFLIVEKLN | -0.0172
HMGRELDLNQRVYDFIHDIADEVRTDEGTFSANQMMERFLFPGDLQSVPIGRLSGGERRRLYLLSVLMVKI | -1.15
HMEQINVTIQTEKGRIDKVLSEHLPNHSRSQIQQWLKEKHVTVNGETVRANYKVTAGDEIVVTIPEPEV | -0.18
HMTKNEFLASFQNELQKRHIPDWEDVVSEYEQHFALKQADGFSEEEIAAKLGAPAELAAQFEA | -0.0811
HMSYGKVQFVIDAKDAVLSIDGKETDYEKPVKLTYGSHTITVYSSDYDTWKRNLYVNSEKSTVVINLA | -0.0156
HMTKTKADKIDYAIGDSGTEPPTEDKWTDLAHLPLIKAGQFQWTRRTEYYSDGSTAVSYNIAKSE | 0.156
HMRETELPVTIISAGRILAENLHLAGRDGGWLEAELKRRSLTAEQVLLLTVDAAGTVYLVRKEDL | -0.617
HMKPFVVVPIDQVRVGMFIQLDLGWMQHPFPVGSFRVASEAQIDTLRSLDLESVRYLPAKSDPAFQQP | -0.986
HMHGEAVVVPNVKGLPMRQAENEIYKQSLKAVAIDSSYVKGMPPGAILEQNPAGGSKVKKGRTVYLTINMD | 0.0278
HMQVITEPFQEKYREFINMSTVTQRLEERETLSFTAQTVEGRWLTIIIVPQGYDKTGKLSTVLVANR | 0.111
HMPSEQGANKARDIIFRHHMKVDVWVGSWENARNYAEQAIKQGVKVIISRGGTAALLRHSLDTAIIKVR | 0.22
HMVQMKIRAYELEPNDFFIKQNMTYRVMRIQNGMIYAKHLLNSTPITFGAKSMEFVLWTGKYS | -1.05
HMLDSNILTLIKELKIRHHFTATQTHQLEKVIQQAHALGLDNSEIRSLANSSPSAKSLINDLNQKLEPLRL | ≥ 0.43
HMDEVVVVERGGVQITMSEIDAKIMELPVDVRPSYLDSPERLQNFVSNLLLEKQAAQLKSQY | -1.42
HMSWNIHEAVEYYKGQDAPQNQFALVELLKEVQEHNGGVLTDIAVEEIAALLNTKVTFLNAVIKRYPSLK | -0.163
HMSKPVYILINKPKGFLASSTDKKVKKSVNDLINISNLNKIYPFDNMGRTSSGLLLLSNDLYFKKHFKDKI | 0.209
HMQGISGIERSLLDALAFEPAGLDALQARTGLDTPTLQALLMGLELQGHVARLPGSLFQRLVR | -1.35
